Reference: a protein production outcome set (Wang et al. 2014)

Assay: label from the status in PepcDB records

Sequence | protein production
MLFDEKEILAITRWAKLYANQSPDRILLGSNDIPPEYRAAVATQIELWPRLRNKLPQWAGISSLYIPSRLSLEQSSGAVTSSYKSRFIREGTKVVDLTGGLGIDFIALMSKASQGIYIERNDETAVAARHNIPLLLNEGKDVNILTGDFKEYLPLIKTFHPDYIYVDPARRSGADKRVYAIADCEPDLIPLATELLPFCSSILAKLSPMIDLWDTLQSLLHVQELHVVAAHGEVKELLVRMSLNEATIPPEKVPIHAINLLLEDTVIPFIFTMEEERSISIPYTDSIDKYVYEPHTALLKAGAFKTVAYRLGLRKLHPNSHLYTSEAYESAFPGRTFVLEEIIPFSTSVLKQLRKVVPQASISCRNFPLSPIELRQRSKMADGGEKTLMGTTMADGKKVLLLLRKAE | not failed
MDLLIALLPALFWGSVVLINVLVGGGPYNQIRGTTLGTLIIGIILLLTGNAKFDDLAVIIVGLISGAFWALGQGYQLKSISLIGVSKTMPISTGLQLVGTTLFSAIFLGEWSTGIQVTLGLVAMVLLVIGIALTSIKGKNEASGGNNKFGKAIPILIISTVGYVVYVVVAQIFGVDGMNALFFQSIGMAIGGLILSAKHETSVKSTMWNIIPGVIWGIGNLFMFYSQPKVGVATSFSFSQLLVIVSTLGGIFLLGERKDKRQMIGIWAGIVLIIIAAFILGNLKG | failed
MTDDPTLWAQRLEEAVVGLGANGDRSHDLAHAKRVLRTALALADGVEDQGEGPVDRLVLTAAAYLHDIVAIEKNDPRRSLASRLSAAKAREILGGLDFPAGRQDGVAHAIEAHSFSAGIAPRSLEARILQDADRMESLGAIGVARTFYVAGRLGSALFHDDDPLAFARPLDERAYALDHFFTKLLTLPATMTTAPGRAMAGERAELLRAFAEALAQEVSGAAAPGPRPARPSDGEAPSPLPVWPGSGTRTR | failed
MKAVILAAGRGSRLQALTDERPKALVPFNGVPLLQRAIETLRRCDVSEVGIVAGYRSEMLAPFADTLFYNHRWHSSGIFSSLNCASDWLSAEPCLVSYGDIFYDSTLVSELINHPADIVLGYDPAAVRLWQQRFNDPLPDLENFRLVDGWVSAIGQTATSLEVIQGQYMGLFKVTPAGWQALKKQLQGLTPQARDQTDMTSLLGTLVSEGFPVAGVATHAPWGEIDCPSDVALYERIYPDRLEHHHHHH | failed
MSVPDNVYLIGTMNTADRSLAGLDIALRRRFDFVEMAPRPDKLTGVKVAEIDISAVLETMNRRIEVLLDREHRLGHAYFMSLENSNDLSRLSNIFRQQIIPLLQEYFFEDWQRIAWILNDHRKDERFRFIVPAPYSVDSLFGDTGQVAQDSKAWRMNEEAFHKPLEHHHHHH | failed
MTQQDFRTKVDNTVFGVRATALIVQNHKLLVTKDKGKYYTIGGAIQVNESTEDAVVREVKEELGVKAQAGQLAFVVENRFEVDGVSYHNIEFHYLVDLLEDAPLTMQEDEKRQPCEWIDLDKLQNIQLVPVFLKTALPDWEGQLRHIHLEE | not failed
MIGHNSPTRTAPLISVTTLDKVALSRLGRDVAVRNRKSRAVLAYLALSPHGFETRERICGLLWSESDEARARASLRQTVVDLKACLAEIEGVFSGDRLNVTLKPSLVTVDVGEIRHELKAGRIPPILLERQRVAESFLNGLDDIDPSFRNWVLVQRQCLQDEFISCLEAMAKAAADWPALKRAGQALLNLDPTNEIGCRAVMEASARMGDQATALRAYKGLWDLLETEFDSEPSAATQALVSDIKLGTIGATDRGAVTAIAAEAFGSQAQRLQEPAAGVLLFVREFELVSGSVRARNAVQIFRSELVASLVRFRDWAVMEWEGHPPRFTENAYCIEATGFIDGPTLRLSMTLKQLASGRYIWSEQFVIENSQWYQTQQRLIRRIAVALGVSMSSERLVQIASIPDLSLEQFDRWLRAQELIFQWRPESEERAEALFRSIIAESPRFAAAYAGLAGIINSRHLIFPGIGRRRERHAEALTFAKQATQIDPIDSRSQLHLAWSYAMNGIPQQAAISFLLACELNGNDPWTLVSASLGLAYCDDRENARRIATLALQTGLGVSRLQWSYQAGVRFLLGDYAGCVEAAERAADSVSYIGGWKAAALALLGNEKAAHEEADRFLAQLKTTWFGNESPEPGNVGTWLMDSFPIYSPEAVEALRRGLAGAGIVVSHMPLPEPVLSAAPDGVVRDA | failed
MAINLNDYKRVAQNLKVNKKNMREFLFDFRVNGKRYRKVETLIERTGWNKKDYEREAQLLLIDYRKKVEANTGNLQITSNTRLNELWELYFQTLDKSTSWTFTKESFYNRYLKEPLGKKKLDSIQEHHIMAIIRHLQAEGMATRTVNTTLEILRPLFDFAIKNKALRDNPTRFIVLKKDNTKKIVINGAEMFKRIFEGINDYYSSQPFYRALFLFGFTGRRKGEILKLKWENIDLDNNYYWIEDTKNNEKQKYELPHFIKEALLQIQDTHTGLVFKSPVTGRMLENTDGQMNKLKKHLNMPELTLHYMRNVLVSALAERGTEAITLSGMLGHRDATTINKYLSLSYHNSSKKGNATMGQIIDAEVVE | failed
MSRARSLFPEMSDFFAGLPSWASIRPVFGDHIIRIEDEMKDGGYELRAEVPGIDPAKDIDITVRDGVLTIKAERTEKKETNGRSEFAYGSFMRSVTLPPGADEDAIKAGYDKGILTISVPVTEPEAAAEKRVAVETVSPLEHHHHHH | failed
MNDPVDDDAEPTGNHADGVTVADLIAKVAGSDGATPRRSRRRRAAEPDPEPEFEAQAEPAPKPTPEPEILPVAPEPPASADPTEVLQAIRYDEYPGDHAGEYPGDHPDAAYAGAADPNLDAIFEPAFAPMPFAGVTAAHPDLDSCDTEIIPAVPAADEHADLPDTHRDSWRRRTRPQHAGTDDFDEPHRRHPNRKAMIVGRAAAAMIAALTLVLTGGAWQWQSSKNDSLNKVAALDLGSRDILDPNAQFGDENFLIVGMDSRFGENSQMGAGSTDDADGARSDTIMLVNIPASRERVVAVSFPRDLAITPMKCEPWDPETGTYGPIWDEASGTYGPDEVYTETKLNSAFAFGGPKCLVKVIQKISGLSVNRFMAVDFAGFSKMVDALGGVEVCSTTPLEDYELGTVLANAGRQIVDGHTALNYVRARQVTTEYNGDYGRIKRQQLFLSSLLRSLISKDTFFSLSKLNNVVNMFIADSYVDNIKTKDLVDLGQSVQGVNAGRITFVTIPTTGYADEWGNEQPRMDDVRALFDAIINDDPLPGEKNPDNTPVPGTPESTTNTAQAPQSTSPAPQPAHAAPAPGSAEMVDTVTTEPQQVTVKVSNSTGQSGLAATAAGELEQHGFNVTTPDDYPGPLDATTVFFSPGNEEAAATVASSFSNAAIERVAGLGDVVQVVLGTDFMAVNPPSPSGSAIQVKLVRGTSSTPTQLPEDLSVTNAADATCE | failed
RDRRDSRLRVAASMTIAEYLLPGWLVALRAQLPDTAVSLLAGNSAAVAERLLADDADLGFVEGVSVPTGLDSAVIGHDRLIVVTAPGHPWARRRRPLEAAELAATPLILREKGSGTRQVLDAALGGLARPLIELSSTTAVK | failed
MGYCQDDQLVNKICDLYEKISKLETLKPCEDVDTLFKQLVSTCIPPNPNIDVTKMSENIQEMRSNLIKICGEAEGYLEHHFSSILTSFEDNPLHHLNLFPYYNNYLKLSKLEFDLLEQNLNGFVPRTVAFIGSGPLPLTSVVLASSHLKDSIFHNFDIDPSANMVAARLVSSDPDLSQRMFFHTVDIMDVTESLKGFDVVFLAALVGMDKKEKVKVVEHLEKHMSPGALLMLRSAHGPRAFLYPIVEPCDLEGFEVLSVYHPTDEVINSIVISRKLGEDANGVVHDHIDQASDLACNCSKIHVIMNKKKSIIEEFAGANEEQLT | failed
MTVEQNVLQQSAAQKHQQTFLNQLREITGINDAQILQQALKDSNGNLELAVAFLTAKNAKTPPQEET | not failed
MGFFSRDIQTMEDLLLHGLRDIYYAEQQITKALPKMIEQATNRDLSQGLTSHLEETQKQIERLDQVFKKLGQKPSGVNCPAIDGLIKEADETAGEIADKTVLDAAIVANAQAVEHYEIARYGTLIAWAEELGHDDIVRFLTTNLNEEKAANTKLNTVALRKGVNRKAAS | not failed
STISILATSDIHGNVLNYDYATGKAPTNTQGLAKVSSYVNSVRASKPNVMLIDDGDTIQGTPLSYYYDKIDTTSEYPLMKIMGAMKYDTWTLGNHEFNYGLPTLNRVISDARKENINVLSANTYNSDNTNFVNPYYIKTFNINGKTVNVGILGLTTKCIPDWEDPSHYAGLHFNDLVDEAKLWVPRMKAAGANVVIVAAHSGEEGAADTIPENQIKAIATNVSGIDAIVAGHAHVTVNDTSLKNPNGKTVPVVEPNKWGTFVSQIDITLDNSGNASTINTQNVKMTDSIPEDPNIVNIIQPYQNKTLDYIST | failed
MEELLREYLPILVFLAVAAGLGLVLILAAVVLAVRNPDPEKVSAYECGFNAFDDARMKFDVRFYLVSILFIIFDLEIAFLFPWAVGFKDMSDVGFWSMMVFLGVLTIGFAYEWKKGALEWQ | failed
MAGNSLVLPIVLWGRKAPTHCISSILLTDDGGTIVTGCHDGQICLWDVSVELEVNPRALLFGHTASITCLSKACASGDKRYTVSASANGEMCLWDVNDGRCIEFTKLACTHTGIQFYQFSVGNQQEGRLLCHGHYPEILVVDATSLEVLYSLVSKISPDWISSMSIIRSQRTQEDTVVALSVTGILKVWIVTSEMSGMQDTEPIFEEESKPIYCQNCQSISFCAFTQRSLLVVCSKYWRVFDAGDYSLLCSGPSENGQTWTGGDFVSADKVIIWTENGQSYIYKLPASCLPASDSFRSDVGKAVENLIPPVQHSLLDQKDKELVICPPVTRFFYGCKEYLHKLLIQGDSSGRLNIWNIADIAEKQEADEGLKMTTCISLQEAFDKLKPCPAGIIDQLSVIPNSNEPLKVTASVYIPAHGRLVCGREDGSIIIVPATQTAIVQLLQGEHMLRRGWPPHRTLRGHRNKVTCLLYPHQVSARYDQRYLISGGVDFSVIIWDIFSGEMKHIFCVHGGEITQLLVPPENCSVSRFI | failed
PLKEQKVINTANITTNSKLDLAEYENGLMNIAKEQFDTENHVLQLNQYIPEKLVDELVAKVKAPVLTNIIEQDYFGKQNSNELSLSGVMIGLAMSSSVSNEEAMSKGTEVANQLIEAIHKNDKYNKSPITFAIFKQESTSSLKNGTYIASATVQKNDTNIGNWNAIEEKAYSYPSDEFTQAHGEDNTKIDDFAKEMKGFSPGDFIPVNAKVSYKKNQMDTLNMNIVIKYNGKTELMALTQLAAQIMLEQLPKDAKVQLQIKSENKIEAIVIKEKNSDKPFVSFL | not failed
MQVIAFIAPLIDKGMDPLTGVPIRQEVPRLMERTFQENQAETYVLFLINLDRFKLVNDSLGEGYGDQVLQTLVRRLLWQLPNQQWIARVSGDEFIACAAIKGELPKKETLATYISSIIQQPFQVDEVQFTMTASIGAAVYPMDGKSVEMIWNSLERALRHAKARGGNCVSWFCQELKDEWIHPFRLENDLRRAVENQELEHHHHHH | failed
